Reference: patent publication US20230159659A1

What was measured:
[1] = biological target: Papain from papaya latex (Sigma) (papaya) (UniProt P00784)
[2] = biological target: Papain from papaya latex (Sigma) (papaya) (UniProt P00784); remark: listed apart in the source

Row | protease activity (% of papain alone), Protease Assay Kit [1] [%] | protease activity (OD), Protease Assay Kit [2] [OD] | Substance
1 | 64.3 | – | Recombinant human Cystatin SA protein (recombinant CST2, Abcam)
2 | – | 0.0005 | Recombinant Human Cystatin SN Protein (recombinant CST1, R&D Systems)
